Assay results reported in publication PMC9223101, “Transcription Regulation of Cell Cycle Regulatory Genes Mediated by NtrX to Affect Sinorhizobium meliloti Cell Division”.

Target: T1, NtrX D53E (His-NtrXD53E) (Sinorhizobium meliloti 1021, UniProt Q92Q87 1-454, D53E)
T1 sequence: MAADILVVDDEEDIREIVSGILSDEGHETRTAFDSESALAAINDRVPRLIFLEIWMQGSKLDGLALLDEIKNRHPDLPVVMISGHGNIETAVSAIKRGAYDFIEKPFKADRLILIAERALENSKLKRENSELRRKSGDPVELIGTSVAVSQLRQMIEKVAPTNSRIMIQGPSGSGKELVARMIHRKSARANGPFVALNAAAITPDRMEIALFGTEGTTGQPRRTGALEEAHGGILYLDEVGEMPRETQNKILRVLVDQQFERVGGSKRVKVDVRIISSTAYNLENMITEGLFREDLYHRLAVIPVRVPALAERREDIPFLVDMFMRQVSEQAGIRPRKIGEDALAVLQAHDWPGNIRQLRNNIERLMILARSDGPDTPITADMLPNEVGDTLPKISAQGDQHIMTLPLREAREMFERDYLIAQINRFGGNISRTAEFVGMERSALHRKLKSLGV
Assay: EMSA; 5 mM Mg2+; almost no complex; EMSA, 20 uL: 3, 6, 15 ng NtrX, 2 nM probe (2 or 40 nM in Methods), 1x binding buffer, 5 mM MgCl2, 50 ng/uL poly(dI-dC), 0.05% NP-40, 1% glycerol, 30 min at 28 C; pH and salt of binding buffer not stated (phosphorylation in 50 mM Tris-HCl pH 7.6, 50 mM KCl, 20 mM MgCl2 nominal 1x)
Conditions: protein: recombinant; tags: His (pET28b); chain copies: 2; label: biotin; blunt

B1: ntrY promoter probe (dsDNA)
DNA 1: GCGCTTGACTGAGATGCAACACCGTTGCATTTTCGCCACAATGCGTTGCTTGAACCTCGCATAAGCGTCGATTCGCCGGC
DNA 2: GCCGGCGAATCGACGCTTATGCGAGGTTCAAGCAACGCATTGTGGCGAAAATGCAACGGTGTTGCATCTCAGTCAAGCGC
binding result: no binding
